Laboratory results taken from patent US6440409.

Experiments:
[1] = molecular target: T1, translation elongation factor 2 (EF-2), toxin-sensitive form with diphthamide
T1 chain: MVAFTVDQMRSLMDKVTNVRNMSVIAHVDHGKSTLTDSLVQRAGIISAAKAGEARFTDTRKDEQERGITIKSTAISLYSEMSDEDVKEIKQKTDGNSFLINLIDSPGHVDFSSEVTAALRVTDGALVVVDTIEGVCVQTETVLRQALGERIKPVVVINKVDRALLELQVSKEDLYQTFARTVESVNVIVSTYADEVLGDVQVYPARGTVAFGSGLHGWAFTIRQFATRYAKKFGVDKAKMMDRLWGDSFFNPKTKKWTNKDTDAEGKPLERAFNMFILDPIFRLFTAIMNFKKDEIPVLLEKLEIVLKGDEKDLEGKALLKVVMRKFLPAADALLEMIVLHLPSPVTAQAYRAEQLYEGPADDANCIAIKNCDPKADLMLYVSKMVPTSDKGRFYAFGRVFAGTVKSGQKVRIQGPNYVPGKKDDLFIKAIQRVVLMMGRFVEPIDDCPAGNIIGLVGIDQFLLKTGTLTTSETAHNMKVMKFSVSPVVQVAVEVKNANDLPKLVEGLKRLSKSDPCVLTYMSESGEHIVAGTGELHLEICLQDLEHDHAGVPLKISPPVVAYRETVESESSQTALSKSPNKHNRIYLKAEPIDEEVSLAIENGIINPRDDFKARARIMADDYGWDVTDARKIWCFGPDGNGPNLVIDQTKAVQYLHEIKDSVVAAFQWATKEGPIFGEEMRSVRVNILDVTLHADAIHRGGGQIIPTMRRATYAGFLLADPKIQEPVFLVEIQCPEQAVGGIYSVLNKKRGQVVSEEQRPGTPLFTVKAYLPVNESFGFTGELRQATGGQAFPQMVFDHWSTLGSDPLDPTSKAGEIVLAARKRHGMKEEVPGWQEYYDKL

[2] = molecular target: T2, translation elongation factor 2 (EF-2), toxin-resistant form without diphthamide (dph1::TRP1 strains)
T2 chain: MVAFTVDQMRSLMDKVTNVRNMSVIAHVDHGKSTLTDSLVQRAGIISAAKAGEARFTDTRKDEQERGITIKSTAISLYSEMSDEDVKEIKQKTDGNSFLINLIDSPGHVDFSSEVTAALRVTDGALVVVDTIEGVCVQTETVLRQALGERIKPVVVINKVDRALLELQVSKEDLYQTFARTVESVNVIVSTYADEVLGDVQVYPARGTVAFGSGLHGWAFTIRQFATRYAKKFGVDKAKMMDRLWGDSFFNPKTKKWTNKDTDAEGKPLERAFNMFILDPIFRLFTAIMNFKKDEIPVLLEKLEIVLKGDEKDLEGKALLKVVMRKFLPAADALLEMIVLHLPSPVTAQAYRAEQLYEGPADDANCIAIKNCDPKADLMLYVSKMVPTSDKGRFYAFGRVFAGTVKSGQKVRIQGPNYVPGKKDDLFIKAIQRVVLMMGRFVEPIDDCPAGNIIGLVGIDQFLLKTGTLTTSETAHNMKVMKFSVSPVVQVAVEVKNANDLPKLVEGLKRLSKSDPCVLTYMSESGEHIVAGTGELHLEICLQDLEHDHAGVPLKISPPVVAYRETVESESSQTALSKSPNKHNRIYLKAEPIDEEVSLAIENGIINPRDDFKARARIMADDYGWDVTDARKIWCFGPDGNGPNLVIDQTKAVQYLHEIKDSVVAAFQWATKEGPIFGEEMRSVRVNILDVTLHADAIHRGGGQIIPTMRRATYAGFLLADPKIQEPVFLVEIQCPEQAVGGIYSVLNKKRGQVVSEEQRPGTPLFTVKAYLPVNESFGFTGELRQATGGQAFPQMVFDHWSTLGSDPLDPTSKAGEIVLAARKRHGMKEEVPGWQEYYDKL

B1: diphtheria toxin F2 fragment (protein)
chain: GADDVVDSSKSFVMENFSSYHGTKPGYVDSIQKGIQKPKSGTQGNYDDDWKGFYSTDNKYDAAGYSVDNENPLSGKAGGVVKVTYPGLTKVLALKVDNAETIKKELGLSLTEPLMEQVGTEEFIKRFGDGASRVVLSLPFAEGSSSVEYINNWEQAKALSVELEINFETRGKRGQDAMYEYMAQACAGNRVRR
viable diploids after mating of the killer strain (TMY401 with pTM147) with the target strain (TMY407 with pRS426), selected on SC-Ura, His [1]: very few viable diploids appear at the intersection of the killer and target strains | viable diploids after mating of the killer strain (TMY401 with pTM147) with the diphtheria toxin-resistant strain TMY403 (dph1::TRP1), selected on SC-Ura, His [2]: healthy diploids are readily obtained
